Laboratory results: patent US9579367B2

Biological target: tissue plasminogen activator (tPA)

B1: Xa-K (FXa chemically modified, via a histidine residue in its active site, with a C-terminal lysine tethered by a PEG4 spacer) (enzyme)
light: ANSFLEEMKKGHLERECMEETCSYEEAREVFEDSDKTNEFWNKYKDGDQCETSPCQNQGKCKDGLGEYTCTCLEGFEGKNCELFTRKLCSLDNGDCDQFCHEEQNSVVCSCARGYTLADNGKACIPTGPYPCGKQTLER
heavy: IVGGQECKDGECPWQALLINEENEGFCGGTILSEFYILTAAHCLYQAKRFKVRVGDRNTEQEEGGEAVHEVEVVIKHNRFTKETYDFDIAVLRLKTPITFRMNVAPACLPERDWAESTLMTQKTGIVSGFGRTHEKGRQSTRLKMLEVPYVDRNSCKLSSSFIITQNMFCAGYDTKQEDACQGDSGGPHVTRFKDTYFVTGIVSWGEGCARKGKYGIYTKVTAFLKWIDRSMKTRGLPKAKSHAPEVITSSPLK
modifications: active-site histidine (position 276 in Table A, UniProt P00742 numbering) covalently linked to (D)Phe-Pro-Arg-CH2- carrying a thiol-maleimide-PEG4 spacer with a C-terminally tethered lysine (Lys-mPEG4)
time to achieve 50% lysis of a plasma clot (turbidity, OD405nm): 10 fold
